Patent US20190135872A1

Experiments:
[1] = target: BG505 NFL-Q563P (HIV-1 BG505 (clade A)); test: BLI, IgG captured, trimer as analyte
[2] = target: 16055 NFL-TD+CC2-D4K_I559P (HIV-1 16055 (clade C)); test: BLI, IgG captured, trimer as analyte
[3] = target: 16055 NFL-L555P (HIV-1 16055 (clade C)); test: BLI, IgG captured, trimer as analyte
[4] = target: 16055 NFL-TD+CC2-D4K_L555P (HIV-1 16055 (clade C)); test: BLI, IgG captured, trimer as analyte
[5] = target: BG505 NFL-CC2 (HIV-1 BG505 (clade A)); test: BLI, IgG captured, trimer as analyte
[6] = target: 16055 NFL-Q562P (HIV-1 16055 (clade C)); test: BLI, IgG captured, trimer as analyte
[7] = target: BG505 NFL (I559P) parental (HIV-1 BG505 (clade A)); test: BLI, IgG captured, trimer as analyte
[8] = target: 16055 NFL-Q563P (HIV-1 16055 (clade C)); test: BLI, IgG captured, trimer as analyte
[9] = target: BG505 NFL-N554P (HIV-1 BG505 (clade A)); test: BLI, IgG captured, trimer as analyte
[10] = target: BG505 NFL-TD+CC2-D4K_L555P (HIV-1 BG505 (clade A)); test: BLI, IgG captured, trimer as analyte
[11] = target: BG505 NFL-TD+CC2-D4K_I559P (HIV-1 BG505 (clade A)); test: BLI, IgG captured, trimer as analyte
[12] = target: BG505 NFL-Q562P (HIV-1 BG505 (clade A)); test: BLI, IgG captured, trimer as analyte
[13] = target: 16055 NFL-CC2 (HIV-1 16055 (clade C)); test: BLI, IgG captured, trimer as analyte
[14] = target: BG505 NFL-S553P (HIV-1 BG505 (clade A)); test: BLI, IgG captured, trimer as analyte
[15] = target: BG505 NFL-L555P (HIV-1 BG505 (clade A)); test: BLI, IgG captured, trimer as analyte
[16] = target: 16055 NFL-TD+CC2-D4K_I559P (HIV-1 16055 (clade C)); test: ELISA, His-captured trimer
[17] = target: 16055 NFL-L555P (HIV-1 16055 (clade C)); test: ELISA, His-captured trimer
[18] = target: 16055 NFL-TD+CC2-D4K_L555P (HIV-1 16055 (clade C)); test: ELISA, His-captured trimer
[19] = target: BG505 NFL-TD+CC2-D4K_L555P w/rEK (HIV-1 BG505 (clade A)); test: ELISA, His-captured trimer
[20] = target: BG505 NFL-CC2 (HIV-1 BG505 (clade A)); test: ELISA, His-captured trimer
[21] = target: 16055 NFL-TD+CC2-D4K_L555P w/rEK (HIV-1 16055 (clade C)); test: ELISA, His-captured trimer
[22] = target: BG505 NFL (I559P) parental (HIV-1 BG505 (clade A)); test: ELISA, His-captured trimer
[23] = target: 16055 NFL-Q563P (HIV-1 16055 (clade C)); test: ELISA, His-captured trimer
[24] = target: BG505 NFL-TD+CC2-D4K_L555P (HIV-1 BG505 (clade A)); test: ELISA, His-captured trimer
[25] = target: 16055 NFL-TD+CC2-D4K_I559P w/rEK (HIV-1 16055 (clade C)); test: ELISA, His-captured trimer
[26] = target: BG505 NFL-TD+CC2-D4K_I559P (HIV-1 BG505 (clade A)); test: ELISA, His-captured trimer
[27] = target: JRFL NFL-CC2 (HIV-1 JRFL (clade B)); test: ELISA, His-captured trimer
[28] = target: 16055 NFL-CC2 (HIV-1 16055 (clade C)); test: ELISA, His-captured trimer
[29] = target: BG505 NFL-L555P (HIV-1 BG505 (clade A)); test: ELISA, His-captured trimer
[30] = target: BG505 NFL-TD+CC2-D4K_I559P w/rEK (HIV-1 BG505 (clade A)); test: ELISA, His-captured trimer
[31] = target: 16055 NFL (I559P) parental (HIV-1 16055 (clade C)); test: ELISA, His-captured trimer

## PG16 (antibody)
[1]
  Kd: 12 nM
[2]
  Kd: 23 nM
  koff: 0.001 s⁻¹
  kon: 43000 M⁻¹ s⁻¹
[3]
  Kd: 6.9 nM
  koff: 0.0009 s⁻¹
  kon: 130000 M⁻¹ s⁻¹
[4]
  Kd: 16 nM
  koff: 0.0007 s⁻¹
  kon: 43000 M⁻¹ s⁻¹
[5]
  Kd: 43 nM
  koff: 0.0033 s⁻¹
  kon: 78000 M⁻¹ s⁻¹
[6]
  Kd: 2.8 nM
  koff: 0.0005 s⁻¹
  kon: 170000 M⁻¹ s⁻¹
[7]
  Kd: 15 nM
[8]
  Kd: 1.7 nM
  koff: 0.0003 s⁻¹
  kon: 190000 M⁻¹ s⁻¹
[9]
  Kd: 14 nM
[10]
  Kd: 70 nM
  koff: 0.0057 s⁻¹
  kon: 81000 M⁻¹ s⁻¹
[11]
  Kd: 59 nM
  koff: 0.0048 s⁻¹
  kon: 81000 M⁻¹ s⁻¹
[12]
  Kd: 15 nM
[13]
  Kd: 15 nM
  koff: 0.0009 s⁻¹
  kon: 61000 M⁻¹ s⁻¹
[14]
  Kd: 7.2 nM
[15]
  Kd: 7.8 nM
[16]
  EC50: 0.123 µg/mL
[17]
  EC50: 0.121 µg/mL
[18]
  EC50: 0.115 µg/mL
[19]
  EC50: 0.307 µg/mL
[20]
  EC50: 0.143 µg/mL
[21]
  EC50: 0.122 µg/mL
[22]
  EC50: 0.144 µg/mL
[23]
  EC50: 0.102 µg/mL
[24]
  EC50: 0.215 µg/mL
[25]
  EC50: 0.19 µg/mL
[26]
  EC50: 0.206 µg/mL
[27]
  EC50: 0.216 µg/mL
[28]
  EC50: 0.089 µg/mL
[29]
  EC50: 0.101 µg/mL
[30]
  EC50: 0.336 µg/mL

## PGDM1400 (antibody)
[1]
  Kd: 5 nM
[2]
  Kd: 21 nM
  koff: 0.0021 s⁻¹
  kon: 98000 M⁻¹ s⁻¹
[3]
  Kd: 2.3 nM
  koff: 0.0004 s⁻¹
  kon: 200000 M⁻¹ s⁻¹
[4]
  Kd: 13 nM
  koff: 0.0016 s⁻¹
  kon: 120000 M⁻¹ s⁻¹
[5]
  Kd: 24 nM
  koff: 0.0018 s⁻¹
  kon: 76000 M⁻¹ s⁻¹
[6]
  Kd: 1.4 nM
  koff: 0.0003 s⁻¹
  kon: 230000 M⁻¹ s⁻¹
[7]
  Kd: 11 nM
[8]
  Kd: 1.3 nM
  koff: 0.0004 s⁻¹
  kon: 300000 M⁻¹ s⁻¹
[9]
  Kd: 2.5 nM
[10]
  Kd: 23 nM
  koff: 0.002 s⁻¹
  kon: 88000 M⁻¹ s⁻¹
[11]
  Kd: 18 nM
  koff: 0.0016 s⁻¹
  kon: 88000 M⁻¹ s⁻¹
[12]
  Kd: 13 nM
[13]
  Kd: 14 nM
  koff: 0.0016 s⁻¹
  kon: 110000 M⁻¹ s⁻¹
[14]
  Kd: 11 nM
[15]
  Kd: 5.1 nM
[16]
  EC50: 0.025 µg/mL
[17]
  EC50: 0.019 µg/mL
[18]
  EC50: 0.021 µg/mL
[19]
  EC50: 0.04 µg/mL
[20]
  EC50: 0.018 µg/mL
[21]
  EC50: 0.025 µg/mL
[22]
  EC50: 0.039 µg/mL
[23]
  EC50: 0.016 µg/mL
[24]
  EC50: 0.042 µg/mL
[25]
  EC50: 0.03 µg/mL
[26]
  EC50: 0.038 µg/mL
[27]
  EC50: 0.2 µg/mL
[28]
  EC50: 0.018 µg/mL
[29]
  EC50: 0.02 µg/mL
[30]
  EC50: 0.038 µg/mL

## PGT128 (antibody)
[16]
  EC50: 0.055 µg/mL
[17]
  EC50: 0.056 µg/mL
[18]
  EC50: 0.05 µg/mL
[19]
  EC50: 0.037 µg/mL
[20]
  EC50: 0.035 µg/mL
[21]
  EC50: 0.071 µg/mL
[22]
  EC50: 0.039 µg/mL
[23]
  EC50: 0.068 µg/mL
[24]
  EC50: 0.041 µg/mL
[25]
  EC50: 0.08 µg/mL
[26]
  EC50: 0.036 µg/mL
[27]
  EC50: 0.04 µg/mL
[28]
  EC50: 0.135 µg/mL
[29]
  EC50: 0.021 µg/mL
[30]
  EC50: 0.036 µg/mL

## PGT151 (antibody)
[1]
  Kd: 1.7 nM
[2]
  Kd: 8.7 nM
  koff: 0.0069 s⁻¹
  kon: 790000 M⁻¹ s⁻¹
[3]
  Kd: 5.7 nM
  koff: 0.0008 s⁻¹
  kon: 150000 M⁻¹ s⁻¹
[4]
  Kd: 13 nM
  koff: 0.0055 s⁻¹
  kon: 45000 M⁻¹ s⁻¹
[5]
  Kd: 1.9 nM
  koff: 0.0006 s⁻¹
  kon: 290000 M⁻¹ s⁻¹
[6]
  Kd: 9.2 nM
  koff: 0.0016 s⁻¹
  kon: 180000 M⁻¹ s⁻¹
[7]
  Kd: 5.5 nM
[8]
  Kd: 8.9 nM
  koff: 0.0016 s⁻¹
  kon: 180000 M⁻¹ s⁻¹
[9]
  Kd: 1.4 nM
[10]
  Kd: 3.7 nM
  koff: 0.0014 s⁻¹
  kon: 370000 M⁻¹ s⁻¹
[11]
  Kd: 2.3 nM
  koff: 0.0008 s⁻¹
  kon: 340000 M⁻¹ s⁻¹
[12]
  Kd: 1.9 nM
[13]
  Kd: 21 nM
  koff: 0.0053 s⁻¹
  kon: 250000 M⁻¹ s⁻¹
[14]
  Kd: 3.3 nM
[15]
  Kd: 1.4 nM
[17]
  EC50: 0.048 µg/mL
[19]
  EC50: 0.085 µg/mL
[20]
  EC50: 0.059 µg/mL
[21]
  EC50: 0.056 µg/mL
[22]
  EC50: 0.062 µg/mL
[23]
  EC50: 0.047 µg/mL
[24]
  EC50: 0.073 µg/mL
[25]
  EC50: 0.041 µg/mL
[26]
  EC50: 0.065 µg/mL
[27]
  EC50: 0.139 µg/mL
[29]
  EC50: 0.058 µg/mL
[30]
  EC50: 0.091 µg/mL

## VRC34 (antibody)
[2]
  Kd: 92 nM
  koff: 0.0038 s⁻¹
  kon: 41000 M⁻¹ s⁻¹
[4]
  Kd: 75 nM
  koff: 0.0038 s⁻¹
  kon: 50000 M⁻¹ s⁻¹
[5]
  Kd: 1.3 nM
  koff: 4e-05 s⁻¹
  kon: 27000 M⁻¹ s⁻¹
[10]
  Kd: 44 nM
  koff: 0.002 s⁻¹
  kon: 44000 M⁻¹ s⁻¹
[11]
  Kd: 12 nM
  koff: 0.0005 s⁻¹
  kon: 43000 M⁻¹ s⁻¹
[13]
  Kd: 63 nM
  koff: 0.0027 s⁻¹
  kon: 43000 M⁻¹ s⁻¹
[19]
  EC50: 0.035 µg/mL
[20]
  EC50: 0.457 µg/mL
[21]
  EC50: 0.032 µg/mL
[31]
  EC50: 0.692 µg/mL
[22]
  EC50: 0.464 µg/mL
[24]
  EC50: 2.43 µg/mL
[25]
  EC50: 0.034 µg/mL
[26]
  EC50: 0.072 µg/mL
[27]
  EC50: 1.01 µg/mL
[28]
  EC50: 0.434 µg/mL
[29]
  EC50: 0.017 µg/mL
[30]
  EC50: 0.037 µg/mL
